Measurements published in publication doi:10.1101/757856, “Biochemical and structural analysis reveals the Neurofibromin (NF1) protein forms a high-affinity dimer” (bioRxiv, 2019).

B1: Neurofibromin C*D domain (1085-1816) (domain or fragment, human, UniProt P21359-2 1085-1816, looked up)
chain: LQPEEGDGVELMEAKSQLFLKYFTLFMNLLNDCSEVEDESAQTGGRKRGMSRRLASLRHCTVLAMSNLLNANVDSGLMHSIGLGYHKDLQTRATFMEVLTKILQQGTEFDTLAETVLADRFERLVELVTMMGDQGELPIAMALANVVPCSQWDELARVLVTLFDSRHLLYQLLWNMFSKEVELADSMQTLFRGNSLASKIMTFCFKVYGATYLQKLLDPLLRIVITSSDWQHVSFEVDPTRLEPSESLEENQRNLLQMTEKFFHAIISSSSEFPPQLRSVCHCLYQVVSQRFPQNSIGAVGSAMFLRFINPAIVSPYEAGILDKKPPPRIERGLKLMSKILQSIANHVLFTKEEHMRPFNDFVKSNFDAARRFFLDIASDCPTSDAVNHSLSFISDGNVLALHRLLWNNQEKIGQYLSSNRDHKAVGRRPFDKMATLLAYLGPPEHKPVADTHWSSLNLTSSKFEEFMTRHQVHEKEEFKALKTLSIFYQAGTSKAGNPIFYYVARRFKTGQINGDLLIYHVLLTLKPYYAKPYEIVVDLTHTGPSNRFKTDFLSKWFVVFPGFAYDNVSAVYIYNCNSWVREYTKYHERLLTGLKGSKRLVFIDCPGKLAEHIEHEQQKLPAATLALEEDLKVFHNALKLAHKDTKVSIKVGSTAVQVTSAERTKVLGQSVFLNDIYYASEIEEICLVDENQFTLTIANQGTPLTFMHQECEAIVQSIIHIRTRWELSQPD
notes: C* constructs have an altered start site within the C domain; source: purified; not shown: His6-MBP, N-terminal, cleaved
B2: Neurofibromin C* domain (1085-1530) (domain or fragment, human, UniProt P21359-2 1085-1530, looked up)
chain: LQPEEGDGVELMEAKSQLFLKYFTLFMNLLNDCSEVEDESAQTGGRKRGMSRRLASLRHCTVLAMSNLLNANVDSGLMHSIGLGYHKDLQTRATFMEVLTKILQQGTEFDTLAETVLADRFERLVELVTMMGDQGELPIAMALANVVPCSQWDELARVLVTLFDSRHLLYQLLWNMFSKEVELADSMQTLFRGNSLASKIMTFCFKVYGATYLQKLLDPLLRIVITSSDWQHVSFEVDPTRLEPSESLEENQRNLLQMTEKFFHAIISSSSEFPPQLRSVCHCLYQVVSQRFPQNSIGAVGSAMFLRFINPAIVSPYEAGILDKKPPPRIERGLKLMSKILQSIANHVLFTKEEHMRPFNDFVKSNFDAARRFFLDIASDCPTSDAVNHSLSFISDGNVLALHRLLWNNQEKIGQYLSSNRDHKAVGRRPFDKMATLLAYLGPPEH
notes: source: purified; not shown: His6-MBP, N-terminal, cleaved

What was measured:
[1] = target: T1, Neurofibromin EF fragment (1821-2818, purified) (human, UniProt P21359-2 1821-2818); assay: SEC; equimolar mixtures of purified NF1 fragments run on SEC; fractions analysed by SDS-PAGE for co-elution; conditions: both partners purified
T1 construct: Neurofibromin, human NF1 isoform 2 (NM_000267.3), residues 1821-2818 (domains E and F); expected molar mass 111 kDa; also called EF domain; C-terminal EF domain; source: baculovirus-based insect cell system, purified; not shown: His6-MBP, N-terminal, cleaved
T1 sequence (looked up): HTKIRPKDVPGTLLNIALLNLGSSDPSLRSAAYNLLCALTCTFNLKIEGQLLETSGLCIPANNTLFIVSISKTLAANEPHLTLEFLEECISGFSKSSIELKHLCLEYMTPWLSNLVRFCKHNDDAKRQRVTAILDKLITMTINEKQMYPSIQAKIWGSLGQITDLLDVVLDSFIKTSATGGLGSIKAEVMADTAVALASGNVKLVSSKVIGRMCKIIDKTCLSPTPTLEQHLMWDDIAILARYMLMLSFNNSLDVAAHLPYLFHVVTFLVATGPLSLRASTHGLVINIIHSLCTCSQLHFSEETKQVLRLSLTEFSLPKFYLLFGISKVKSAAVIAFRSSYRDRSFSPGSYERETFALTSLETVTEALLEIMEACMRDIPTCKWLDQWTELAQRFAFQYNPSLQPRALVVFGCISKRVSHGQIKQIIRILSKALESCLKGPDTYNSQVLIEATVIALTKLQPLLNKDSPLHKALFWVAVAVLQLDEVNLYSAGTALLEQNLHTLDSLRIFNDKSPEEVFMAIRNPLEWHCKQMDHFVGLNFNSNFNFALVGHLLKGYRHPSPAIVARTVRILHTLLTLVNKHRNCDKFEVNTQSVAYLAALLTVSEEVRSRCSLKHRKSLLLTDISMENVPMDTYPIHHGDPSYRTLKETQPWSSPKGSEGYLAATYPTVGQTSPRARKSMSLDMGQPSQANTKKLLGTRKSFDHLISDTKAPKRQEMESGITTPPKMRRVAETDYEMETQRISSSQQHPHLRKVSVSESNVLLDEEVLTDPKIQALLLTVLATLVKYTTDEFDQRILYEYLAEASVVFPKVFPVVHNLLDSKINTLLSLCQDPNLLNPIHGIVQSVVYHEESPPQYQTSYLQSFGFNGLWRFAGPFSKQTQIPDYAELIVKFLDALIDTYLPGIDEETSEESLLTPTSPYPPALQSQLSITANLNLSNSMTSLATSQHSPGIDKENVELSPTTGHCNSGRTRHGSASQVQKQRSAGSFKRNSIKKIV

[2] = target: T2, Neurofibromin DEF fragment (1541-2818, purified) (human, UniProt P21359-2 1541-2818); assay: as above; conditions: both partners purified
T2 construct: expected molar mass 144 kDa; also called DEF domain; carboxy-terminal DEF; source: baculovirus-based insect cell system, purified; not shown: His6-MBP, N-terminal, cleaved

| Binder | binding result [1] | binding result [2] |
| --- | --- | --- |
| B1 | binds | – |
| B2 | binds | binds |
